From the supplement of paper PMC10567573

B1: TBX5 (parent)
chain: FHEVGTEMIITKAGRRMFPSYKVK
B2: TMEM175 (parent)
chain: SCTIIFLASIFQLAMWTTALLHQA

Variants of: B1
Assay: protein stability index of a GFP-peptide fusion (GPS, HEK-293T) (PSI 1-6); higher = more stable
Details: c terminus: a fixed tail appended
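Further: lentivirally expressed fusions sorted by FACS into six bins by GFP to DsRed ratio, PSI derived from sequencing read proportions per bin multiplied by bin number.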

Protein stability index, by site and new letter:
M8: A 2.27, G 1.93, R 1.79, N 2.38, H 2.33, E 3.03, C 2.09, Q 2.06, I 1.33, D 3.29, Y 1.87, P 2.08, K 2.68, V 1.43, L 1.66, S 2.34, T 2.2, F 1.59, W 2.07
I9: K 2.48, T 2.84, R 2.68, N 2.46, G 2, L 1.79, E 3.06, A 2.38, C 1.5, Y 1.8, D 2.38, S 2.29, F 2.52, M 2.19, P 2.75, Q 2.5, V 3.05
F1: T 3.13, L 2.3, P 3.5, M 3.02, E 3.68, Q 3.25, R 2.58, K 3.54, N 3.4, C 2.18, V 2.58, W 2.46, G 3.65, I 2.44, H 2.41, A 3.81, D 3.1, S 3.09, Y 2.55
E3: R 2.58, N 1.03, H 1.06, F 2.39, A 1.87, K 1.45, P 2.42, Q 1.8, S 2.8, T 1.03, V 2.58, D 1.26, C 2.54, I 4.17
I10: W 1.76, Y 1.48, T 1.91, Q 2.45, N 2.03, F 3.28, S 3.26, E 2.66, D 3.5, P 2.44, L 2.21, H 2.25, V 2.14, M 1.63, R 2.21, C 2.41, A 1.68, K 2.84
H2: M 2.03, W 1.57, S 2.53, G 2.48, V 2.38, L 2.07, K 2.24, D 2.67, Q 1.84, A 2.04, E 3.09, R 2.53, P 2.27, T 1.85, C 1.72, N 2.93, F 2.39, I 1.69, Y 2.41
G5: Y 1.49, A 2.44, T 1.92, S 2.76, P 2.05, Q 2.13, V 1.23, K 1.88, I 3.47, H 1.92, M 1.69, C 2.02, N 1.5, L 1.92, D 2.58
T11: C 2.44, A 3.29
T6: M 1.37, E 3.65, P 1.3, S 2.21, Y 1.56, C 1.52, N 1.68, L 3.1, F 2.76, G 2.9, K 2.23, Q 2.2, A 1.93, D 2.25, V 2.07, R 1.62, W 2.13, H 2.01
E7: Q 1.81, A 2.82, T 1.87, P 1.71, V 1.84, M 1.49, C 2.07, N 1.88, W 2.06, L 1.93, K 1.92, H 1.55, D 1.81, G 2.98, S 1.66
V4: A 1.97, P 1.86, C 2, E 2.23, I 2.41, Q 1.96, R 1.42, N 2.05, G 2.32, F 2.65, H 1.85, D 2.48, L 2.09, S 1.95, T 2.34, K 1.98, Y 2.46, M 1.6

Variants of: B2
Assay: as above
Details: c terminus: a fixed tail appended

Protein stability index: each site, then its substitutions
Q23: G 4.5, F 3.89, P 3, M 3.84, N 4.37, K 3.26, E 2.09, S 3.77, I 2.95, V 3.24, H 2.71, W 3.32, T 3.34
A14: T 2.73, R 3.53, S 2.58, W 2.09, Q 4.22, Y 4
T17: S 2.31, F 1.74, Q 2.52, D 3.83, E 2.36, R 2.01, H 4.62, V 2.22, L 3.31, Y 2.83, I 3.54, W 4, P 2.64, N 3.8, A 1.59, K 2.94
T18: G 1.6, C 3.17, E 2.78, F 3.03, S 3.06, L 2.73, P 3.36, R 2.09, H 2.85, D 2.18, K 2.31, Y 2.68, A 2.23, I 2.16
L21: C 3.36, H 3.3, R 3.98, V 3.72, S 3.45, N 2.05, F 2.81, P 3.35, T 3.02, I 2.71, M 2.73, Y 3.71, D 3.61, Q 2.64, E 2.55, A 1.45, K 3.7
M15: L 2.53, V 3.45, H 2.49, F 2.73, S 2.48, Q 2.52, K 2.96, I 2.79, R 1.69, D 3.28, P 3.25, T 3.17, E 3.53, W 3.1, Y 2.97, N 2.51, A 3.24
A19: M 3.22, Y 2.1, T 3.07, V 2.43, P 4.62, I 2.14, W 3.12, D 2.3, F 3.13, L 2.11, R 2.19, H 1.58, E 2.73, K 2.76
L20: A 3.09, N 3.09, Y 3.22, I 3.51, S 3.1, G 1.94, P 1.81, F 2.74, Q 3.1, M 3.22, W 1.4, D 3.05, H 3.02, R 3.39
W16: S 2.58, Q 1.12, P 2.53, N 3.23, I 3.15, F 1.76, G 2.72, A 3.29, H 1.8, R 2.51, L 2.94, Y 3.76, V 3.96, M 3.11, C 3.44, K 2.44
H22: T 2.65, N 2.87, P 3, C 3.02, Q 2.97, M 2.74, G 3.04, F 2.6, R 2.5, V 3.39, W 3.14, Y 2.5, I 4.4, A 3.84, K 3.44, L 1.86
A24: D 4.05, F 2.62, C 3.39, K 2.88, I 3.19, H 2.67, S 1.55, W 3.03, R 2.43, M 1.89, V 1.5, Y 2.61, Q 2.56, L 3.17, E 3.22, T 3.01, N 2.45
